In the supplement of paper PMC7125110:
± gives the standard error. For some of these results: Fewer inactive variants are shown than the library holds.

B1: glmS ribozyme (parent)
chain: AUAAAAGCGCCAGAACUACAGAAAUGUAGUUGACGAGGAGGAGGUUUAUCGAAUUUUCGGCGGAUGCCUCCAAA

What was measured:
Settings in all cases: with glucosamine-6-phosphate
glucosamine-6-phosphate [1] = variants of: B1; experiment: kcat; higher = faster cleavage; RNA array
Procedure, shortened: (§1)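 Using a hybridised Cy3 probe at 37 °C, barcoded ribozyme variants transcribed in situ by E. coli RNA polymerase on sequenced MiSeq chips were monitored across tiles imaged over ~14 h. The flow contained glucosamine-6-phosphate from 40 μM to 10 mM in HEPES/KCl/Mg(OAc)2 buffer. Signals were normalised to baseline and to non-cleaving reference variants before per-tile medians were fit to one- or two-exponential decays to yield kobs. Weighted Michaelis–Menten fits across concentrations gave kcat and KM.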

glucosamine-6-phosphate [2] = variants of: B1; experiment: KM; higher = weaker cofactor use; RNA array
Procedure, shortened: as §1

glucosamine-6-phosphate [3] = variants of: B1; experiment: self-cleavage kobs at 640 uM GlcN6P; higher = faster cleavage; RNA array
Procedure, shortened: as §1

glucosamine-6-phosphate [4] = variants of: B1; experiment: self-cleavage kobs at 2500 uM GlcN6P; higher = faster cleavage; RNA array
Procedure, shortened: as §1

glucosamine-6-phosphate [5] = variants of: B1; experiment: self-cleavage kobs at 10000 uM GlcN6P; higher = faster cleavage; RNA array
Procedure, shortened: as §1

glucosamine-6-phosphate [6] = variants of: B1; experiment: self-cleavage kobs at 40 uM GlcN6P; higher = faster cleavage; RNA array
Procedure, shortened: as §1

glucosamine-6-phosphate [7] = variants of: B1; experiment: self-cleavage kobs at 160 uM GlcN6P; higher = faster cleavage; RNA array
Procedure, shortened: as §1

Variant | kcat (glucosamine-6-phosphate [1]) [s⁻¹] | KM (glucosamine-6-phosphate [2]) [µM] | self-cleavage kobs at 640 uM GlcN6P (glucosamine-6-phosphate [3]) [s⁻¹] | self-cleavage kobs at 2500 uM GlcN6P (glucosamine-6-phosphate [4]) [s⁻¹] | self-cleavage kobs at 10000 uM GlcN6P (glucosamine-6-phosphate [5]) [s⁻¹] | self-cleavage kobs at 40 uM GlcN6P (glucosamine-6-phosphate [6]) [s⁻¹] | self-cleavage kobs at 160 uM GlcN6P (glucosamine-6-phosphate [7]) [s⁻¹]
U31C U65G | 0.0016 ± 0.00034 | 5250 ± 1700 | 0.000198 ± 2.5e-05 | 0.000465 ± 7.2e-05 | 0.00108 ± 0.00013 | – | –
U31C G32C | 0.000493 ± 0.00011 | 4480 ± 2100 | – | 0.00017 ± 2.6e-05 | 0.000344 ± 3.5e-05 | – | –
G32A G44A | 6.55e-05 ± 1.7e-05 | – | – | – | – | – | –
U31G U46C | 0.000896 ± 0.00013 | 1720 ± 420 | 0.00021 ± 6.8e-05 | 0.000592 ± 0.00011 | 0.000731 ± 0.00014 | 3.68e-05 ± 1.6e-05 | 7.33e-05 ± 1.5e-05
U31G A52U | 8.72e-05 ± 5.4e-06 | 1520 ± 320 | – | 5.7e-05 ± 9.5e-06 | 7.41e-05 ± 1.1e-05 | < 1e-05 | –
U31C C70A | 6.32e-05 ± 4.7e-06 | 135 ± 56 | 5.83e-05 ± 9.7e-06 | 5.7e-05 ± 1.6e-05 | 5.89e-05 ± 1.2e-05 | – | 2.96e-05 ± 1.2e-05
U31A A48U | 9.44e-05 ± 4.1e-05 | – | 4.25e-05 ± 1.5e-05 | 5.43e-05 ± 1.6e-05 | 0.000133 ± 4.7e-05 | – | –
G32A A33G | 1.05e-05 ± 2.6e-06 | – | – | – | – | < 1e-05 | –
G32A A33U | 5.7e-05 ± 3e-06 | 4530 ± 700 | – | – | 3.92e-05 ± 6.3e-06 | – | –
G32A A42G | 0.00505 ± 0.0014 | 3140 ± 1200 | 0.00133 ± 0.00025 | 0.00281 ± 0.00043 | 0.00357 ± 0.00047 | 7.49e-05 ± 1.3e-05 | 0.000193 ± 3.2e-05
U31A U55G C67G | 0.000655 ± 6.8e-05 | 428 ± 100 | 0.000467 ± 0.00012 | 0.000505 ± 9.5e-05 | 0.000735 ± 0.00019 | 5.68e-05 ± 1.9e-05 | 0.000166 ± 5.4e-05
G32A U46G | 0.000631 ± 7.4e-05 | 3220 ± 660 | 9.72e-05 ± 1.8e-05 | 0.000303 ± 5.6e-05 | 0.000468 ± 6.8e-05 | – | –
G32A U46C | 0.000236 ± 2.1e-05 | 1770 ± 290 | 6.49e-05 ± 8.9e-06 | 0.000126 ± 2.3e-05 | 0.000209 ± 3.3e-05 | – | –
G32A U46A | 0.000607 ± 2.1e-05 | – | 2.22e-05 ± 1.1e-05 | 7.83e-05 ± 2.1e-05 | 0.000226 ± 2.7e-05 | – | –
G32C A42U | < 1e-05 | – | – | < 1e-05 | – | – | < 1e-05
G32C A42G | 0.000211 ± 3.7e-05 | – | – | 3.92e-05 ± 9.5e-06 | 0.000103 ± 1.3e-05 | – | –

Variant | kcat (glucosamine-6-phosphate [1]) [s⁻¹] | KM (glucosamine-6-phosphate [2]) [µM] | self-cleavage kobs at 640 uM GlcN6P (glucosamine-6-phosphate [3]) [s⁻¹] | self-cleavage kobs at 2500 uM GlcN6P (glucosamine-6-phosphate [4]) [s⁻¹] | self-cleavage kobs at 10000 uM GlcN6P (glucosamine-6-phosphate [5]) [s⁻¹] | self-cleavage kobs at 40 uM GlcN6P (glucosamine-6-phosphate [6]) [s⁻¹] | self-cleavage kobs at 160 uM GlcN6P (glucosamine-6-phosphate [7]) [s⁻¹]
U31C G59U C68A | 3.76e-05 ± 1.6e-05 | – | – | – | – | – | –
G32A G40U | 0.00051 ± 0.0001 | 3900 ± 1200 | 7.8e-05 ± 9.2e-06 | 0.000169 ± 2.5e-05 | 0.000401 ± 5.6e-05 | – | –
G32A G40A | 0.000781 ± 2.4e-05 | 2220 ± 130 | 0.000175 ± 3.4e-05 | 0.000414 ± 6.4e-05 | 0.000639 ± 8.9e-05 | – | 5.38e-05 ± 1.8e-05
U31A U47C | 0.0025 ± 0.0005 | 3290 ± 980 | 0.000511 ± 0.00012 | 0.00117 ± 0.00017 | 0.00174 ± 0.00034 | 3.34e-05 ± 1.3e-05 | 9.34e-05 ± 2.4e-05
U31C A42U | 1.58e-05 ± 4.1e-06 | – | – | – | – | < 1e-05 | < 1e-05
U31C A48U | 6.21e-05 ± 6.5e-06 | 2780 ± 1100 | – | – | 4.85e-05 ± 9.7e-06 | < 1e-05 | < 1e-05
U31G C68U | 0.00134 ± 0.00023 | 2020 ± 590 | 0.000312 ± 4.3e-05 | 0.000606 ± 0.0001 | 0.00126 ± 0.00015 | 3.14e-05 ± 7.7e-06 | 0.000119 ± 2.9e-05
G32C G41U | < 1e-05 | – | – | – | – | < 1e-05 | < 1e-05
U31A U46A | 0.00237 ± 0.00062 | 5680 ± 2600 | 0.000292 ± 9.4e-05 | 0.000857 ± 0.0002 | 0.00149 ± 0.00018 | 3.33e-05 ± 1.3e-05 | 4.27e-05 ± 1.9e-05
G32A G59A C68U | 1.04e-05 ± 2.4e-06 | – | – | – | – | – | –
G32A U55C | 0.00196 ± 0.00036 | 2790 ± 760 | 0.000403 ± 4.8e-05 | 0.00122 ± 0.0002 | 0.00143 ± 0.00018 | – | 9.47e-05 ± 1.6e-05
U30G C68A | 2.01e-05 ± 5.2e-06 | – | – | – | – | – | –
U30G U31C | 0.00345 ± 0.00042 | 2530 ± 520 | 0.000578 ± 0.00015 | 0.00207 ± 0.0003 | 0.00267 ± 0.00025 | 4.81e-05 ± 8.9e-06 | 0.000238 ± 3.9e-05
U31G A39C | 0.00339 ± 0.0008 | 3130 ± 1100 | 0.000584 ± 0.00012 | 0.00195 ± 0.00036 | 0.00236 ± 0.00045 | – | 0.000147 ± 3.4e-05
U31G U69G | 5.43e-05 ± 8.8e-06 | – | 5.73e-05 ± 1.2e-05 | 5.24e-05 ± 7.9e-06 | 4.43e-05 ± 1e-05 | – | 9.12e-05 ± 1.7e-05
U30G U46A | 0.000655 ± 7e-05 | 3710 ± 930 | – | 0.000252 ± 5.8e-05 | 0.000483 ± 6.6e-05 | – | –
